Reference: the supplement of paper PMC7877785
± gives the uncertainty stated by the source.

Test: self-splicing fitness, log relative to wild type (ln ratio); higher = more splicing; Tetrahymena group I intron in knt gene, E. coli kanamycin selection, DiMSum; sequences stand for … in CUCUCU…GGAGGGAAAAGUUAUCAGGCAUGCACCUGGUAGCUAGUCUUUAAACCAAUAGAUUGCAUCGGUUUAAAAGGCAAGACCGUCAAAUUGCGGGAAAGGGGUCAACAGCCGUUCAGUACCAAGUCUCAGGGGAAACUUUGAGAUGGCCUUGCAAAGGGUAUGGUAAUAAGCUGACGGACAUGGUCCUAACCACGCAGCCAAGUCCUAAGUCAACAGAUCUUCUGUUGAUAUGGAUGCAGUUCACAGACUAAAUGUCGGUCGGGGAAGAUGUAUUCUUCUCAUAAGAUAUAGUCGGACCUCUCCUUAAUGGGAGCUAGCGGAUGAAGUGAUGCAACACUGGAGCCGCUGGGAACUAAUUUGUAUGCGAAAGUAUAUUGAUUAGUUUUGGAGUACUCGUGGUCG
Summary of the method: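 Pooled colonies went to amplicon sequencing on an Illumina HiSeq 2500 after six replicate transformations. The plates were LB agar with 100 μg/mL carbenicillin, 50 μM IPTG and 0.2% rhamnose, with or without 25 μg/mL kanamycin, incubated overnight at 37°C or 30°C. The E. coli BL21(DE3) library had all eight P1ex-region intron nucleotides randomised, the intron placed in the knt kanamycin-resistance gene on pET-22b(+). DiMSum fitness is the error-weighted combination of replicate fold changes, kanamycin against none, normalised to wild type.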

| Sequence | self-splicing fitness (ln) (30 °C) | self-splicing fitness (ln) (37 °C) |
| --- | --- | --- |
| GAUUAGCAAUAUUACGAACG | -1.09 ± 0.12 | 0.232 ± 0.13 |
| GAUUAGCAAUAUUACGAAGC | -2.4 ± 0.21 | -2.28 ± 0.21 |
| GAUUAGCAAUAUUACGAAUG | -0.837 ± 0.14 | -0.649 ± 0.16 |
| GAUUAGCAAUAUUACGAAUU | -2.56 ± 0.3 | -2.95 ± 0.47 |
| GAUUAGCAAUAUUACGACCG | -1.44 ± 0.14 | 0.0909 ± 0.18 |
| GAUUAGCAAUAUUACGACUA | -0.765 ± 0.17 | 0.0117 ± 0.13 |
| GAUUAGCAAUAUUACGAUAU | -1.19 ± 0.11 | -0.869 ± 0.13 |
| GAUUAGCAAUAUUACGCCGU | -1.61 ± 0.15 | -0.986 ± 0.25 |
| GAUUAGCAAUAUUACGCCUG | -1.56 ± 0.2 | -0.102 ± 0.19 |
| GAUUAGCAAUAUUACGCGAG | -2.28 ± 0.17 | -0.865 ± 0.12 |
| GAUUAGCAAUAUUACGCGUC | -4.09 ± 0.47 | -2.01 ± 0.3 |
| GAUUAGCAAUAUUACGCUAC | -3.62 ± 0.42 | -1.48 ± 0.29 |
| GAUUAGCAAUAUUACGCUGU | -2.84 ± 0.28 | -1.74 ± 0.31 |
| GAUUAGCAAUAUUACGGAGC | -3.23 ± 0.17 | -1.23 ± 0.13 |
| GAUUAGCAAUAUUACGGGAG | -2.81 ± 0.24 | -2.8 ± 0.38 |
| GAUUAGCAAUAUUACGGUCA | -1.38 ± 0.15 | -1.2 ± 0.12 |
| GAUUAGCAAUAUUACGGUGU | -2.74 ± 0.09 | -0.798 ± 0.083 |
| GAUUAGCAAUAUUACGUACG | -1.1 ± 0.13 | 0.136 ± 0.15 |
| GAUUAGCAAUAUUACGUCCU | -1.08 ± 0.14 | -0.47 ± 0.18 |
| GAUUAGCAAUAUUACGUGUC | -2.86 ± 0.27 | -2.28 ± 0.26 |
| GAUUAGCAAUAUUACGUUAA | -1.94 ± 0.32 | -1.98 ± 0.3 |
| GAUUAGCAAUAUUACGUUCA | -0.941 ± 0.084 | -0.497 ± 0.088 |
| GAUUAGCAAUAUUACGUUCU | -2.91 ± 0.11 | -2.07 ± 0.1 |
| GAUUAGCAAUAUUACGUUGC | – | -1.94 ± 0.26 |
| GCAAAGCAAUAUUACGAAAA | -1.98 ± 0.2 | -1.84 ± 0.24 |

| Sequence | self-splicing fitness (ln) (30 °C) | self-splicing fitness (ln) (37 °C) |
| --- | --- | --- |
| GCAAAGCAAUAUUACGAACU | -0.569 ± 0.094 | -0.26 ± 0.13 |
| GCAAAGCAAUAUUACGAAUC | -1.68 ± 0.12 | -0.115 ± 0.13 |
| GCAAAGCAAUAUUACGAGGG | -3.02 ± 0.11 | -1.55 ± 0.1 |
| GCAAAGCAAUAUUACGAUAG | -2.23 ± 0.11 | -0.989 ± 0.12 |
| GCAAAGCAAUAUUACGAUGG | -1.02 ± 0.099 | -0.442 ± 0.13 |
| GCAAAGCAAUAUUACGCAUU | -2.78 ± 0.12 | -1.7 ± 0.14 |
| GCAAAGCAAUAUUACGCCAC | -3.15 ± 0.27 | -1.93 ± 0.19 |
| GCAAAGCAAUAUUACGCGAG | -2.18 ± 0.28 | -1.11 ± 0.18 |
| GCAAAGCAAUAUUACGCUCA | -0.972 ± 0.13 | -0.0384 ± 0.16 |
| GCAAAGCAAUAUUACGCUGC | -3.72 ± 0.42 | – |
| GCAAAGCAAUAUUACGCUGU | -3.42 ± 0.26 | -2.84 ± 0.31 |
| GCAAAGCAAUAUUACGGAAG | -1.96 ± 0.14 | -0.343 ± 0.16 |
| GCAAAGCAAUAUUACGGACA | -0.517 ± 0.18 | -0.839 ± 0.14 |
| GCAAAGCAAUAUUACGGACC | -0.898 ± 0.092 | 0.746 ± 0.13 |
| GCAAAGCAAUAUUACGGACU | -0.621 ± 0.047 | 0.0957 ± 0.075 |
| GCAAAGCAAUAUUACGGAGG | -1.9 ± 0.1 | -1.62 ± 0.14 |
| GCAAAGCAAUAUUACGGAUG | -2.52 ± 0.12 | -1.74 ± 0.13 |
| GCAAAGCAAUAUUACGGCGC | -2.1 ± 0.19 | -0.824 ± 0.2 |
| GCAAAGCAAUAUUACGGCGU | -1.78 ± 0.1 | -0.692 ± 0.12 |
| GCAAAGCAAUAUUACGGUCG | -1.62 ± 0.089 | -0.369 ± 0.11 |
| GCAAAGCAAUAUUACGUCGC | -1.48 ± 0.16 | -2.45 ± 0.27 |
| GCACAGCAAUAUUACGAAGA | -1.41 ± 0.14 | -1.4 ± 0.18 |
| GCACAGCAAUAUUACGACCG | -1.14 ± 0.098 | 0.0916 ± 0.15 |
| GCACAGCAAUAUUACGCACA | -1.09 ± 0.092 | -0.164 ± 0.1 |
| GCACAGCAAUAUUACGCACU | -0.263 ± 0.06 | 0.324 ± 0.077 |

| Sequence | self-splicing fitness (ln) (30 °C) | self-splicing fitness (ln) (37 °C) |
| --- | --- | --- |
| GCACAGCAAUAUUACGCCAG | -1.99 ± 0.25 | -2.06 ± 0.26 |
| GCACAGCAAUAUUACGCCCC | -0.949 ± 0.12 | -0.0642 ± 0.15 |
| GCACAGCAAUAUUACGCGCG | -1.05 ± 0.066 | -0.445 ± 0.075 |
| GCACAGCAAUAUUACGCUCU | -0.938 ± 0.091 | -0.131 ± 0.1 |
| GCACAGCAAUAUUACGCUGA | -2.36 ± 0.13 | -0.362 ± 0.088 |
| GCACAGCAAUAUUACGGAAA | -2.39 ± 0.2 | 0.239 ± 0.16 |
| GCACAGCAAUAUUACGGACC | -1.43 ± 0.11 | 0.156 ± 0.14 |
| GCACAGCAAUAUUACGGCAG | -3.39 ± 0.2 | -1.4 ± 0.16 |
| GCACAGCAAUAUUACGGGCC | – | -1.7 ± 0.21 |
| GCACAGCAAUAUUACGGGCU | -3.81 ± 0.24 | -1.77 ± 0.12 |
| GCACAGCAAUAUUACGGGUU | -1.17 ± 0.041 | -0.667 ± 0.055 |
| GCACAGCAAUAUUACGGUGU | -3.58 ± 0.14 | -3.45 ± 0.29 |
| GCACAGCAAUAUUACGUAAA | -0.808 ± 0.057 | 0.219 ± 0.077 |
| GCACAGCAAUAUUACGUAGC | -2.19 ± 0.089 | -1.64 ± 0.12 |
| GCACAGCAAUAUUACGUCAG | -2.44 ± 0.12 | -2.48 ± 0.21 |
| GCACAGCAAUAUUACGUCGA | -0.827 ± 0.05 | -0.258 ± 0.062 |
| GCACAGCAAUAUUACGUGCC | -5.1 ± 0.29 | – |
| GCACAGCAAUAUUACGUGCG | -2.65 ± 0.066 | -1.12 ± 0.066 |
| GCACAGCAAUAUUACGUUUC | -1.61 ± 0.063 | -0.982 ± 0.084 |
| GCAGAGCAAUAUUACGAAUU | -3.99 ± 0.42 | -2.05 ± 0.37 |
| GCAGAGCAAUAUUACGACGA | -2.64 ± 0.24 | -0.208 ± 0.12 |
| GCAGAGCAAUAUUACGAUCG | – | -1.33 ± 0.34 |
| GCAGAGCAAUAUUACGCACU | – | -3.43 ± 0.43 |
| GCAGAGCAAUAUUACGCAUA | -3.11 ± 0.22 | -2.89 ± 0.24 |
| GCAGAGCAAUAUUACGCCAA | -2.73 ± 0.38 | -2.72 ± 0.44 |

| Sequence | self-splicing fitness (ln) (30 °C) | self-splicing fitness (ln) (37 °C) |
| --- | --- | --- |
| GCAGAGCAAUAUUACGCUAU | -2.9 ± 0.33 | -1.32 ± 0.28 |
| GCAGAGCAAUAUUACGCUCU | -3.93 ± 0.44 | – |
| GCAGAGCAAUAUUACGGACC | -3.65 ± 0.37 | -0.0809 ± 0.29 |
| GCAGAGCAAUAUUACGGACG | – | -2.96 ± 0.29 |
| GCAGAGCAAUAUUACGGAUU | -3.62 ± 0.3 | – |
| GCAGAGCAAUAUUACGGCGA | -2.12 ± 0.11 | -1.55 ± 0.11 |
| GCAGAGCAAUAUUACGGCGC | -2.3 ± 0.23 | -1.28 ± 0.41 |
| GCAGAGCAAUAUUACGGGAG | -2.81 ± 0.21 | -2.81 ± 0.32 |
| GCAGAGCAAUAUUACGGGCA | -2.97 ± 0.17 | -1.67 ± 0.15 |
| GCAGAGCAAUAUUACGGGGA | -3.65 ± 0.37 | -2.84 ± 0.36 |
| GCAGAGCAAUAUUACGGUCA | -0.893 ± 0.21 | -0.283 ± 0.14 |
| GCAGAGCAAUAUUACGGUGA | -2.68 ± 0.22 | -2.53 ± 0.24 |
| GCAGAGCAAUAUUACGUAGA | -2.99 ± 0.15 | -1.78 ± 0.14 |
| GCAGAGCAAUAUUACGUCCU | -3.22 ± 0.42 | -0.41 ± 0.27 |
| GCAGAGCAAUAUUACGUCGU | -2.88 ± 0.18 | -0.722 ± 0.16 |
| GCAGAGCAAUAUUACGUGCC | -3.66 ± 0.3 | -2.94 ± 0.3 |
| GCAGAGCAAUAUUACGUGCG | -2.76 ± 0.096 | -0.667 ± 0.1 |
| GCAGAGCAAUAUUACGUGUC | -4.24 ± 0.26 | -2.16 ± 0.21 |
| GCAGAGCAAUAUUACGUUGG | -2.91 ± 0.18 | -1.09 ± 0.19 |
| GCAUAGCAAUAUUACGAAAC | -2.18 ± 0.12 | -0.684 ± 0.1 |
| GCAUAGCAAUAUUACGAAUG | -2.33 ± 0.096 | -1.85 ± 0.12 |
| GCAUAGCAAUAUUACGACCG | -0.896 ± 0.17 | 0.516 ± 0.14 |
| GCAUAGCAAUAUUACGACGA | -1.06 ± 0.14 | -0.364 ± 0.14 |
